Tests used:
[1] = target: cellular microtubules (polymerised tubulin) (human (endogenous in HeLa)) (UniProt P68363)
[2] = target: cellular microtubules (polymerised tubulin) (human (endogenous in HeLa)) (UniProt P68363); remark: listed apart in the source
[3] = target: cellular microtubules (polymerised tubulin) (human (endogenous in HeLa)) (UniProt P68363); test: FRAP; as a1, cells treated with 1 μM Nocodazole (30 min before and during FRAP) to disassemble microtubules
[4] = target: cellular microtubules (polymerised tubulin) (human (endogenous in HeLa)) (UniProt P68363); test: FRAP; live untreated reporter cells, 37°C, 5% CO2; EYFP bleached in a circular ROI of 2 μm radius in the cytoplasm; recovery fitted with two exponentials (A1 diffusing phase, A2 MT-bound phase)

UniProt P68363, sequence (P68363 whole entry, chain 1 of 2): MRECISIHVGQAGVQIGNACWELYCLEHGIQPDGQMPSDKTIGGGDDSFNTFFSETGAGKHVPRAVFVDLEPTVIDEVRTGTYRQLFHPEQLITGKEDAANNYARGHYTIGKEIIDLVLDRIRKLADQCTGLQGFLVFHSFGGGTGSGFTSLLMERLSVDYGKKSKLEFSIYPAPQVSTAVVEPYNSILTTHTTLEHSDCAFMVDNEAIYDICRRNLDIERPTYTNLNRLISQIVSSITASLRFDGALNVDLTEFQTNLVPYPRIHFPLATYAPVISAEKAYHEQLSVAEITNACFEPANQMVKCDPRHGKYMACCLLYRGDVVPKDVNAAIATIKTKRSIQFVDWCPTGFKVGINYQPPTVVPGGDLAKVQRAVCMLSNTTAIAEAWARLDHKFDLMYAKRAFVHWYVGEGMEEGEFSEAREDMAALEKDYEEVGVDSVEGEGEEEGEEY
UniProt P68363, sequence (P07437 whole entry, chain 2 of 2, further chain): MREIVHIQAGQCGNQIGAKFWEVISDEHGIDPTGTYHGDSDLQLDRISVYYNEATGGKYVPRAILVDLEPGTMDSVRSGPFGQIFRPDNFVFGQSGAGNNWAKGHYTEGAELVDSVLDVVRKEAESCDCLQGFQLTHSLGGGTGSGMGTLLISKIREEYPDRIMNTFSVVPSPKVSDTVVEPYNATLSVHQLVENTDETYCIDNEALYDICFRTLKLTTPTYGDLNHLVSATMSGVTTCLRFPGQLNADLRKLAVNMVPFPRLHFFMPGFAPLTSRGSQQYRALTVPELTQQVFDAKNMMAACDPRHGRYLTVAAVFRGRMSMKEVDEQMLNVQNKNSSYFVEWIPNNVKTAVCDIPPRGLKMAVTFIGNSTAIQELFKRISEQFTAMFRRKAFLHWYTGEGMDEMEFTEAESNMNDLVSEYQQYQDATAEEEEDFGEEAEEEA

NFRET of CST during treatment with 1 μM nocodazole (time course; at 10 min) [1]: 50%
NFRET of CST (intramolecular, ECFP to EYFP) along MTs in untreated cells [2]: 14.5
fraction of the mobile molecules in the MT-bound phase (A2), with Nocodazole [3]: 47%
fraction of the mobile molecules in the MT-bound phase (A2) [4]: 72%
time constant of fluorescence recovery of the MT-bound phase (τ2) [4]: 35.2 s
Substance: Conformational Sensitive Tau sensor (ECFP-Tau-EYFP, full length human Tau-D, 0N4R) (from UniProt P10636-6 1-383) (natural protein)
